The supplement of paper PMC7877785
± gives the uncertainty stated by the source.

Experiment: self-splicing fitness, log relative to wild type (ln ratio); higher = more splicing; Tetrahymena group I intron in knt gene, E. coli kanamycin selection, DiMSum; sequences stand for … in CUCUCU…GGAGGGAAAAGUUAUCAGGCAUGCACCUGGUAGCUAGUCUUUAAACCAAUAGAUUGCAUCGGUUUAAAAGGCAAGACCGUCAAAUUGCGGGAAAGGGGUCAACAGCCGUUCAGUACCAAGUCUCAGGGGAAACUUUGAGAUGGCCUUGCAAAGGGUAUGGUAAUAAGCUGACGGACAUGGUCCUAACCACGCAGCCAAGUCCUAAGUCAACAGAUCUUCUGUUGAUAUGGAUGCAGUUCACAGACUAAAUGUCGGUCGGGGAAGAUGUAUUCUUCUCAUAAGAUAUAGUCGGACCUCUCCUUAAUGGGAGCUAGCGGAUGAAGUGAUGCAACACUGGAGCCGCUGGGAACUAAUUUGUAUGCGAAAGUAUAUUGAUUAGUUUUGGAGUACUCGUGGUCG
Summary of the method: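 Fitness was computed with DiMSum as the error-weighted combination of replicate fold changes, kanamycin versus none, each normalised to wild type. The library randomised all eight intron nucleotides of the P1ex region, with the intron placed in the knt kanamycin-resistance gene on pET-22b(+) in E. coli BL21(DE3). Six replicate transformations were grown overnight at 37°C or 30°C on LB agar with or without 25 μg/mL kanamycin, plus 100 μg/mL carbenicillin, 50 μM IPTG and 0.2% rhamnose. Pooled colonies were amplicon-sequenced on an Illumina HiSeq 2500.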

Sequence | self-splicing fitness (ln) (30 °C) | self-splicing fitness (ln) (37 °C)
UUACAGCAAUAUUACGGCUA | -0.676 ± 0.091 | 0.443 ± 0.11
UUACAGCAAUAUUACGGGAU | -3.85 ± 0.21 | -2.69 ± 0.13
UUACAGCAAUAUUACGGGCU | -3.86 ± 0.24 | -2.32 ± 0.18
UUACAGCAAUAUUACGGUAU | -1.96 ± 0.097 | -0.871 ± 0.1
UUACAGCAAUAUUACGUAAC | -3.72 ± 0.18 | -3.25 ± 0.24
UUACAGCAAUAUUACGUCAU | -3.77 ± 0.2 | -1.18 ± 0.12
UUACAGCAAUAUUACGUCGG | -1.24 ± 0.08 | -0.125 ± 0.087
UUACAGCAAUAUUACGUGAC | -3.7 ± 0.21 | -1.81 ± 0.16
UUACAGCAAUAUUACGUUAA | -1.12 ± 0.11 | -0.847 ± 0.085
UUAGAGCAAUAUUACGAAAA | -1.66 ± 0.13 | -0.776 ± 0.15
UUAGAGCAAUAUUACGAAGA | -1.27 ± 0.13 | -0.451 ± 0.23
UUAGAGCAAUAUUACGAAGG | -1.72 ± 0.14 | -1.9 ± 0.23
UUAGAGCAAUAUUACGACAA | 0.166 ± 0.062 | 0.493 ± 0.09
UUAGAGCAAUAUUACGCAUA | -3.06 ± 0.27 | -0.817 ± 0.3
UUAGAGCAAUAUUACGGGUU | -4.25 ± 0.42 | -3.21 ± 0.35
UUAGAGCAAUAUUACGGUUA | -0.618 ± 0.15 | -1.17 ± 0.23
UUAGAGCAAUAUUACGUAGG | -2.7 ± 0.14 | -1.5 ± 0.15
UUAGAGCAAUAUUACGUCAA | -1.59 ± 0.16 | -1.15 ± 0.22
UUAGAGCAAUAUUACGUCAG | -1.02 ± 0.15 | -0.83 ± 0.17
UUAGAGCAAUAUUACGUCUA | -0.712 ± 0.071 | -0.109 ± 0.11
UUAGAGCAAUAUUACGUUUU | -3.39 ± 0.32 | -2.3 ± 0.27
UUAUAGCAAUAUUACGAAUC | -2.06 ± 0.4 | -1.85 ± 0.48
UUAUAGCAAUAUUACGACUA | -0.12 ± 0.23 | -0.299 ± 0.2
UUAUAGCAAUAUUACGAGGG | -3.47 ± 0.26 | -2.3 ± 0.27
UUAUAGCAAUAUUACGAGUG | -1.06 ± 0.11 | -1.32 ± 0.2
UUAUAGCAAUAUUACGAUUU | -1.23 ± 0.11 | -0.501 ± 0.13

Sequence | self-splicing fitness (ln) (30 °C) | self-splicing fitness (ln) (37 °C)
UUAUAGCAAUAUUACGCACU | -1.15 ± 0.16 | -0.214 ± 0.21
UUAUAGCAAUAUUACGCCCG | -1.45 ± 0.36 | –
UUAUAGCAAUAUUACGCUGA | -2.17 ± 0.14 | -0.624 ± 0.13
UUAUAGCAAUAUUACGGUCG | -0.705 ± 0.11 | 0.176 ± 0.15
UUAUAGCAAUAUUACGGUUU | -1.66 ± 0.1 | -1.09 ± 0.12
UUAUAGCAAUAUUACGUCGU | -3.1 ± 0.3 | –
UUAUAGCAAUAUUACGUUAG | -1.1 ± 0.12 | -0.717 ± 0.14
UUAUAGCAAUAUUACGUUGU | -3.44 ± 0.27 | -2.38 ± 0.23
UUCAAGCAAUAUUACGAAAC | -2.77 ± 0.31 | -2.89 ± 0.35
UUCAAGCAAUAUUACGAGCU | -2.99 ± 0.23 | -1.33 ± 0.18
UUCAAGCAAUAUUACGCAGG | -2.71 ± 0.14 | -1.78 ± 0.13
UUCAAGCAAUAUUACGCGGA | -2.64 ± 0.16 | -2.09 ± 0.15
UUCAAGCAAUAUUACGCGUC | -2.89 ± 0.15 | -0.969 ± 0.16
UUCAAGCAAUAUUACGGAUC | -1.5 ± 0.25 | -2.84 ± 0.21
UUCAAGCAAUAUUACGGCAA | 0.101 ± 0.1 | 0.0563 ± 0.11
UUCAAGCAAUAUUACGGGCC | – | -2.94 ± 0.48
UUCAAGCAAUAUUACGGGGC | -3.6 ± 0.27 | -2.8 ± 0.33
UUCAAGCAAUAUUACGGGGG | -3.34 ± 0.26 | -0.739 ± 0.16
UUCAAGCAAUAUUACGGGUG | -0.476 ± 0.045 | -0.593 ± 0.06
UUCAAGCAAUAUUACGGUGU | -2.98 ± 0.18 | -2.49 ± 0.17
UUCAAGCAAUAUUACGUACC | – | -1.69 ± 0.2
UUCAAGCAAUAUUACGUAGC | -4.06 ± 0.26 | -2.3 ± 0.25
UUCAAGCAAUAUUACGUAUA | -1.48 ± 0.1 | -0.136 ± 0.096
UUCAAGCAAUAUUACGUCUC | -3.33 ± 0.26 | -1.74 ± 0.18
UUCAAGCAAUAUUACGUGAA | -0.675 ± 0.089 | -0.479 ± 0.12
UUCAAGCAAUAUUACGUUAG | -3.23 ± 0.12 | -1.32 ± 0.089

Sequence | self-splicing fitness (ln) (30 °C) | self-splicing fitness (ln) (37 °C)
UUCAAGCAAUAUUACGUUGU | -3.87 ± 0.19 | -1.34 ± 0.12
UUCCAGCAAUAUUACGAAGA | -0.997 ± 0.11 | -0.671 ± 0.1
UUCCAGCAAUAUUACGAAGC | -2.59 ± 0.32 | -1.92 ± 0.26
UUCCAGCAAUAUUACGAAUA | -1.24 ± 0.15 | -0.772 ± 0.16
UUCCAGCAAUAUUACGACCA | -0.177 ± 0.26 | -0.862 ± 0.23
UUCCAGCAAUAUUACGACGA | -0.529 ± 0.12 | 0.216 ± 0.15
UUCCAGCAAUAUUACGACUC | -3.04 ± 0.24 | -1.67 ± 0.19
UUCCAGCAAUAUUACGAUCG | -2.6 ± 0.12 | -1.04 ± 0.14
UUCCAGCAAUAUUACGCAAA | -1.42 ± 0.12 | -0.0764 ± 0.13
UUCCAGCAAUAUUACGCAGU | -3.23 ± 0.17 | -2.79 ± 0.28
UUCCAGCAAUAUUACGCGUG | -1.43 ± 0.069 | -0.516 ± 0.073
UUCCAGCAAUAUUACGCUUC | -4.08 ± 0.24 | -2.58 ± 0.18
UUCCAGCAAUAUUACGCUUG | -2.97 ± 0.21 | -1.94 ± 0.22
UUCCAGCAAUAUUACGGAAG | -2.85 ± 0.19 | -2.16 ± 0.2
UUCCAGCAAUAUUACGGACG | -0.4 ± 0.048 | 0.421 ± 0.077
UUCCAGCAAUAUUACGGGCU | -4.67 ± 0.31 | -2.18 ± 0.17
UUCCAGCAAUAUUACGGUAA | -0.236 ± 0.087 | -0.0663 ± 0.086
UUCCAGCAAUAUUACGGUGC | -1.9 ± 0.16 | -1.23 ± 0.18
UUCCAGCAAUAUUACGGUUC | -2.81 ± 0.16 | -1.99 ± 0.24
UUCCAGCAAUAUUACGUAGA | -0.592 ± 0.076 | -0.502 ± 0.093
UUCCAGCAAUAUUACGUAGU | -1.32 ± 0.093 | -1.57 ± 0.12
UUCCAGCAAUAUUACGUAUU | -3.21 ± 0.18 | -1.7 ± 0.19
UUCCAGCAAUAUUACGUCGA | -0.549 ± 0.099 | 0.355 ± 0.11
UUCCAGCAAUAUUACGUCGU | -4.1 ± 0.19 | -1.85 ± 0.12
